Assay results: the RNAGym collection of RNA variant scans (doi:10.1073/pnas.2313332121)

B1: TPR t1 (parent)
chain: GACCAAUCUGCCCUCAGAGCUCGAGAACAUCUUCGGAUGCAGAGGAGGCAGGCUUCGGUGGCGCGAUAGCGCCAACGUCCUCAACCUCCAAUGCAUCCCACCACAUGAUGAUGCCUGAAGAGCCUUGGUUUUUUG

Variants of: B1
Experiment: polymerase ribozyme fitness, log enrichment relative to wild type (log ratio); higher = more active; in vitro selection for triplet polymerase activity
Outline: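 Mutant libraries for each subunit of a heterodimeric triplet polymerase ribozyme were made by PCR and then transcribed. Each library underwent one round of in vitro selection in triplicate: annealing with a biotinylated primer, the partner subunit and triplets, frozen incubation at −7 °C, gel excision of extended constructs, streptavidin-bead capture and RT-PCR. Input and output libraries were Illumina-sequenced, and only genotypes with ≥10 input reads and ≥1 read per output were kept. Fitness is the logarithm, base 2, of genotype enrichment over wild-type enrichment, computed from inverse-variance-weighted replicate averages.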

Variant	polymerase ribozyme fitness (log ratio)
GACCAAUCUGCCCUCAGAGCUCGAGAACAUCUUCGGAUGCAGAGGAGUCAGGCUUCGGCGGCGCGAUAGGGCCAACGUCCUCAACCUCCAAUGCAUCCCACCACAUGAUGAUGCCUGAAGAGCCUUGGUUUUUUG [G48U U59C C70G]	-6.09
GACCAAUCUGCCCUCAGAGCUCGAGAACAUCUUCGGAUGCAGAGGAGUCAGGCUGCGGUGGCGCGAUAGCGCCAACGUCCUCAACCUCCAAUGCAUCCCACCACAUGAUGAUGCCUGAAGAGCCUUGGUUUUUUG [G48U U55G]	-0.43
GACCAAUCUGCCCUCAGAGCUCGAGAACAUCUUCGGAUGCAGAGGAGUCAGGCUUCGGCGGCGCGAUAGCGCCAACGUCCUCAACCUCCAAUGCAUCCCACCACAUGAUGAUGCCUGAAGAGCCUUGGUUUUUUG [G48U U59C]	0.407
GACCAAUCUGCCCUCAGAGCUCGAGAACAUCUUCGGAUGCAGAGGAGUCAGGCUUCGGUGGCGCGAUAGCGCCAACGUCCUCAACCUCCAAUGCAUCCCACCACACGAUGAUGCCUCAAGAGCCUUGGUUUUUUG [G48U U106C G117C]	-5.18
GACCAAUCUGCCCUCAGAGCUCGAGAACAUCUUCGGAUGCAGAGGAGUCAGGCUUCGGAGGCGCGAUAGCGCCAACGUCCUCAACCUCCAAUGCAUCCCACCACAUGAUGAUGCCUGAAUAGCCUUGGUUUUUUG [G48U U59A G120U]	-0.541
GACCAAUCUGCCCUCAGAGCUCGAGAACAUCUUCGGAUGCAGAGGAGUCAGGCCUCGGUGGCGCGAUAGCGCGAACGUCCUGAACCUCCAAUGCAUCCCACCACAUGAUGAUACCUGAAGAACCUGGGUUUUUUG [G48U U54C C73G C82G G113A G122A U126G]	-6.92
GACCAAUCUGCCCUCAGAGCUCGAGAACAUCUUCGGAUGCAGAGGAGUCAGGCUUCGGUGGCGCGAUAGCGCCAACGUCCUCAACCACCAAUGCAUCCCACCACAUGAUGAUGCCUGAAGAGCCUUGGUUUUUUG [G48U U87A]	-1.44
GACCAAUCUGCCCUCAGAGCUCGAGAACAUCUUCGGAUGCAGAGGAGUCAGGCUUCGGUGGCGCGAUAGCGCCAACGUCCUCAACCUCCAAUGCAUCCCACCACAAGAUGAUGCCUGAAGAGCCUUGCUUUUUUG [G48U U106A G128C]	-3.74
GACCAAUCUGCCCUCAGAGCUCGAGAACAUCUUCGGAUGCAGAGGAGUCAGGCUUCGGUGGCGCGAUAGCGCCAACGUCCUCAACCUCCAAUGCAUCCCACCACAUGAUGAUGCCUGAAGAACCUUGGUUUUUUG [G48U G122A]	-1.27
GACCAAUCUGCCCUCAGAGCUCGAGAACAUCUUCGGAUGCAGAGGAGUCAGGCCUCGGUGGCGCGAUAGCGCCAACGUCCUCAACCUCCAAUGCAUCCCACCACAUGAUGAUGCCUGAAGAGCCUUGGUUUUUUG [G48U U54C]	-1.22
GACCAAUCUGCCCUCAGAGCUCGAGAACAUCUUCGGAUGCAGAGGAGUCAGGCUGCGGUGGCGCGAUAGCGCCAACGUCCUCAACCUCCAAUGCAUCCCACCACAUGAUGAAGCCUGAAGAGCCUUGGUUUUUUG [G48U U55G U112A]	0.525
GACCAAUCUGCCCUCAGAGCUCGAGAACAUCUUCGGAUGCAGAGGAGUCAGGCUUCGGGGGCGCGAUAGCGCCAACGUCAUCAACCUCCAAUGCAUCCCACCACAUGAUGAUGCCUGAAUAGACUUGGUUUUUUG [G48U U59G C80A G120U C123A]	-4.73
GACCAAUCUGCCCUCAGAGCUCGAGAACAUCUUCGGAUGCAGAGGAGUCAGGCUUCGGUGGCGCGAUAGCGCCAACGUCCUCAACCGCCUAUGCAUCCCACCACAUGAUGAUGCCUGAAGAGCCUUGGUUUUUUG [G48U U87G A90U]	-1.49
GACCAAUCUGCCCUCAGAGCUCGAGAACAUCUUCGGAUGCAGAGGAGUCAGGCUUCGGUGGCGCGAUAGCGCCAACGUCCUCAACCUCCAAUGCAUCCCACCACAUGAUGAUGCCUGAAGAGCCUUGGUUUUUUC [G48U G135C]	-1.03
GACCAAUCUGCCCUCAGAGCUCGAGAACAUCUUCGGAUGCAGAGGAGUCAGGCUUCGGUGGCGCGAUAGCGCCAACGUCCUCAACCUCCAAUGCAUCCCACCACAUGAUGAUGCCUGAAGAGCCUUGGUUUUUUU [G48U G135U]	-2.2
GACCAAUCUGCCCUCAGAGCUCGAGAACAUCUUCGGAUGCAGAGGAGUCAGGCUUCGGAGGCGCGAUACCGCCAACGUCCUCAACCUCCAAUGCAUCCCACCACAUGAUGAUGCCCGAAGAGCUUUGGUUUUUUG [G48U U59A G69C U116C C124U]	-2.23
GACCAAUCUGCCCUCAGAGCUCGAGAACAUCUUCGGAUGCAGAGGAGUCAGGCCUCGGUGGCGCGAUAGCGCCAACGUCCUGAACCUCCAAUGCAUCCCACCACAUGAUGAUGCGUGAAGAGCCUUGGUUUUUUG [G48U U54C C82G C115G]	-3.12
GACCAAUCUGCCCUCAGAGCUCGAGAACAUCUUCGGAUGCAGAGGAGUCAGGCUUCGGUGGCGCGAUAGCGCCAACGUCCUCAACCUCCAAUGCAUCCCACCACAUGAUGACGCCUGAAGAGCCUUGGUUUUUUG [G48U U112C]	0.623
GACCAAUCUGCCCUCAGAGCUCGAGAACAUCUUCGGAUGCAGAGGAGUCAGGCUUCGGUGGCGCGAUAGCGCCAACGUCCUCAACCUCCAAUGCAUCCCACCACAUGAAGAUGCCUGAAGAGCCUUGGUUUUUUG [G48U U109A]	-5.53
GACCAAUCUGCCCUCAGAGCUCGAGAACAUCUUCGGAUGCAGAGGAGUCAGGCUUCGGUGGCGCGAUAGCGCCAACGUCCUCAACCUCCAAUGCAUCCCACCACAUGAGGAUGCCUGAAGAGCCUUGGUUUUUUG [G48U U109G]	-4.7
GACCAAUCUGCCCUCAGAGCUCGAGAACAUCUUCGGAUGCAGAGGAGUCAGGCUUCGGAUGCGCGAUAGCGCCAACGUUCUCAACCUCCAAGGCAUCCCACCACAUGAUGAUGCCUGAAGAAACUUGGUUUUUUG [G48U U59A G60U C79U U92G G122A C123A]	-5.96
